The text below walks through data of PMC8091583 (FEBS Open Bio, 2021).

Series [1] concerns the target T1, PYL3 with HAB1 (Arabidopsis thaliana, UniProt Q9SSM7, F188A).
T1 construct: 6xHis-tagged PYL3 plus HAB1 (169-511), GST tag removed by TEV protease; both from E. coli; with Protein phosphatase 2C 16
T1 sequence (Q9SSM7 1-209 F188A): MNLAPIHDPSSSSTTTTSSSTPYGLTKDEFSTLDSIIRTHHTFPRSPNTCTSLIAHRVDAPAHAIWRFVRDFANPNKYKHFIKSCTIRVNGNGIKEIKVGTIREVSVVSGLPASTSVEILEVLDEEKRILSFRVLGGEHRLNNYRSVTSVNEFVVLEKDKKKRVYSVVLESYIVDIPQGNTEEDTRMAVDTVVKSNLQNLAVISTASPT
T1 sequence (Q9CAJ0 169-511 partner): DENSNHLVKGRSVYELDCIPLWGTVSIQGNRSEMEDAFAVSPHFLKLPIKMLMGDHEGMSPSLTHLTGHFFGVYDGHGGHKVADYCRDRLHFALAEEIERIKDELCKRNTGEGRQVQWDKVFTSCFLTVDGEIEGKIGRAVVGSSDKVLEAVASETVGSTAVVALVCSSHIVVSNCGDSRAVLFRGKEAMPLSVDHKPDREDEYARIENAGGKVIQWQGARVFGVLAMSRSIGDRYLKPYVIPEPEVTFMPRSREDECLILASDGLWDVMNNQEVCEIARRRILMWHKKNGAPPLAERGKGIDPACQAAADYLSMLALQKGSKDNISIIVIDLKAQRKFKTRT
The experiment in a line: HAB1 phosphatase assay (Promega V2460), phosphopeptide substrate. Type of series: biochemical. Conditions: read-out: % inhibition of HAB1 with 5 μM ABA.

The target in series [2] is T2, PYL3 with HAB1 (Arabidopsis thaliana, UniProt Q9SSM7, F81A).
T2 construct: 6xHis-tagged PYL3 plus HAB1 (169-511), GST tag removed by TEV protease; both from E. coli; with Protein phosphatase 2C 16
T2 sequence (Q9SSM7 1-209 F81A): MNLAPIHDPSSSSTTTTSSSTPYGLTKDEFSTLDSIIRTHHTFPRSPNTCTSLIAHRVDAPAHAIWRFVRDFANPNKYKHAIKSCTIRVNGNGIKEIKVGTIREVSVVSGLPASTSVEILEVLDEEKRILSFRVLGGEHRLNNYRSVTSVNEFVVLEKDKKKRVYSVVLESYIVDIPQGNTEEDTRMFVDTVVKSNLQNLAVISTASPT
T2 sequence (Q9CAJ0 169-511 partner): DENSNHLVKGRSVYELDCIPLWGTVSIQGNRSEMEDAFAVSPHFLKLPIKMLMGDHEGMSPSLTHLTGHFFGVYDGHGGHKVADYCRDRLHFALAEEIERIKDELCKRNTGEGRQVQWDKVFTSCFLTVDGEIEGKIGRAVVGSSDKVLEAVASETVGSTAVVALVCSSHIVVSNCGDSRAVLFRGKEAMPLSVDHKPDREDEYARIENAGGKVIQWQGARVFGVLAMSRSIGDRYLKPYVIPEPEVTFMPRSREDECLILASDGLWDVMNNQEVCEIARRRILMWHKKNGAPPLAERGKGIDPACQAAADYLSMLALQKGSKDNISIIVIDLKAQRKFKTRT
The series is described as above. The series is classed as biochemical. The conditions noted are these: read-out: % inhibition of HAB1 with 5 μM ABA.

The target in series [3] is T3, PYL3 with HAB1 (Arabidopsis thaliana, UniProt Q9SSM7).
T3 construct: 6xHis-tagged PYL3 plus HAB1 (169-511), GST tag removed by TEV protease; both from E. coli; with Protein phosphatase 2C 16
T3 sequence (Q9SSM7 1-209): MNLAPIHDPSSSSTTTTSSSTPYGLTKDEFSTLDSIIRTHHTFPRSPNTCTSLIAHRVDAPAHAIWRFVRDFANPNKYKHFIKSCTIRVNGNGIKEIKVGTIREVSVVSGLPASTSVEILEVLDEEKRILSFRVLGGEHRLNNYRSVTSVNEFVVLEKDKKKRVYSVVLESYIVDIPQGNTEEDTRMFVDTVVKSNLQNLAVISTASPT
T3 sequence (Q9CAJ0 169-511 partner): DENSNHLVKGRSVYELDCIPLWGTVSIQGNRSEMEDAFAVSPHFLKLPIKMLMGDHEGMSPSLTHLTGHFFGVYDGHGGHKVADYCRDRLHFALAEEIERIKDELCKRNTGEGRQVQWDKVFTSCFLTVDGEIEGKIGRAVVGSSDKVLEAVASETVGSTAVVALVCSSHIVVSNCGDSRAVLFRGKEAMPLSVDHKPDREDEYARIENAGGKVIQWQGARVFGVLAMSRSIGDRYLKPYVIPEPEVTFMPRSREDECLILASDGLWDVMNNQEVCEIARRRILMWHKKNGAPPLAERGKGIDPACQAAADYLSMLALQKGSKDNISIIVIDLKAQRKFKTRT
Described as above. Type of series: biochemical. Conditions: HAB1 0.5 μM, PYL3 1 μM, ABA 5 μM, pH 7.5, 30 °C; ABA promotes inhibition of HAB1 by PYL3.

The target in series [4] is AD-HAB1 (169-511) (Arabidopsis thaliana) (UniProt Q9CAJ0).
Sequence of AD-HAB1 (169-511) (Arabidopsis thaliana) (Q9CAJ0 whole entry): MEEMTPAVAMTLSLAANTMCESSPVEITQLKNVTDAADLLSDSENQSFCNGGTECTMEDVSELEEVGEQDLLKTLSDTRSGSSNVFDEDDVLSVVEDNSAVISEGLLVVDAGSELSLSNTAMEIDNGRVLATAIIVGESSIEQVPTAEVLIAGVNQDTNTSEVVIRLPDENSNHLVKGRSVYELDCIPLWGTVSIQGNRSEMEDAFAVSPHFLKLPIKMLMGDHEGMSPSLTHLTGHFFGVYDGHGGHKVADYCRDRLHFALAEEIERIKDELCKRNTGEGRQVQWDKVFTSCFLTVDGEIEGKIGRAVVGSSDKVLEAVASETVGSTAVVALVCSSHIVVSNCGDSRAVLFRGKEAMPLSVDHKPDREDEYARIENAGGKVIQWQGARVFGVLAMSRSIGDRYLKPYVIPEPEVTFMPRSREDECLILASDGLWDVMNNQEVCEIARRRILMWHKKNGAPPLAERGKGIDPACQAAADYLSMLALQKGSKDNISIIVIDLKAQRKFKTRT
Series [5] shares this target. This is another data set of the same source.
Series [6] has the same target. This is another data set of the same source.
Series [7] concerns the molecule itself. As to the kind of experiment: cross-linking; EGS cross-linking gel assay: 20 μg 6x His-tagged PYL3 WT or mutant in PBS (pH 7.5, 150 mM NaCl), 100 μL, increasing EGS, 10 min at room temperature, stopped with Tris-glycine; 10% SDS/PAGE, Coomassie; self-association (dimer).

Take `CC1=CC(=O)CC(C)(C)[C@@]1(O)/C=C/C(C)=C\C(=O)O` [ABA]: the inhibition at 5 µM in series [1] and in series [2] was roughly 70% throughout. In addition, the “HAB1 phosphatase assay (Promega V2460), phosphopeptide substrate” value in series [3] is “PYL3 could almost completely inhibit the activity of HAB1 in the presence of ABA”.

B1: PYL3 V108K V107L (receptor)
chain: MNLAPIHDPSSSSTTTTSSSTPYGLTKDEFSTLDSIIRTHHTFPRSPNTCTSLIAHRVDAPAHAIWRFVRDFANPNKYKHFIKSCTIRVNGNGIKEIKVGTIREVSLKSGLPASTSVEILEVLDEEKRILSFRVLGGEHRLNNYRSVTSVNEFVVLEKDKKKRVYSVVLESYIVDIPQGNTEEDTRMFVDTVVKSNLQNLAVISTASPT
In series [4], B1 displayed an inhibition of HAB1 (0.5 μM) phosphatase activity by 1 μM PYL3 mutant, without ABA of 25%. In series [5], this molecule displayed an inhibition of HAB1 phosphatase activity by the PYL3 mutant, without ABA (as retold in the discussion, Fig. 3) of 20%.

B2: PYL3 F81A (receptor)
chain: MNLAPIHDPSSSSTTTTSSSTPYGLTKDEFSTLDSIIRTHHTFPRSPNTCTSLIAHRVDAPAHAIWRFVRDFANPNKYKHAIKSCTIRVNGNGIKEIKVGTIREVSVVSGLPASTSVEILEVLDEEKRILSFRVLGGEHRLNNYRSVTSVNEFVVLEKDKKKRVYSVVLESYIVDIPQGNTEEDTRMFVDTVVKSNLQNLAVISTASPT
With B2, the inhibition of HAB1 (0.5 μM) phosphatase activity by 1 μM PYL3 mutant, with ABA (5 μM) in series [6] stood at 70%.

B3: PYL3 V108K V107L L111F (receptor)
chain: MNLAPIHDPSSSSTTTTSSSTPYGLTKDEFSTLDSIIRTHHTFPRSPNTCTSLIAHRVDAPAHAIWRFVRDFANPNKYKHFIKSCTIRVNGNGIKEIKVGTIREVSLKSGFPASTSVEILEVLDEEKRILSFRVLGGEHRLNNYRSVTSVNEFVVLEKDKKKRVYSVVLESYIVDIPQGNTEEDTRMFVDTVVKSNLQNLAVISTASPT
For the molecule B3, in series [4], the inhibition of HAB1 (0.5 μM) phosphatase activity by 1 μM PYL3 mutant, without ABA was 80%.

B4: PYL3 V108A (6x His-tagged) (receptor, Arabidopsis thaliana, UniProt Q9SSM7 1-209, looked up)
chain: MNLAPIHDPSSSSTTTTSSSTPYGLTKDEFSTLDSIIRTHHTFPRSPNTCTSLIAHRVDAPAHAIWRFVRDFANPNKYKHFIKSCTIRVNGNGIKEIKVGTIREVSVASGLPASTSVEILEVLDEEKRILSFRVLGGEHRLNNYRSVTSVNEFVVLEKDKKKRVYSVVLESYIVDIPQGNTEEDTRMFVDTVVKSNLQNLAVISTASPT
notes: PYL3, Arabidopsis thaliana, in pET-28a-tev, site-directed mutant; Same limits as m1; source: E. coli BL21(Rosseta), purified (Ni-charged resin, SEC Superdex-200)
With B4, the “stoichiometry N” value in series [7] was 2.

B5: wild-type PYL3 (6x His-tagged) (receptor, Arabidopsis thaliana, UniProt Q9SSM7 1-209, looked up)
chain: MNLAPIHDPSSSSTTTTSSSTPYGLTKDEFSTLDSIIRTHHTFPRSPNTCTSLIAHRVDAPAHAIWRFVRDFANPNKYKHFIKSCTIRVNGNGIKEIKVGTIREVSVVSGLPASTSVEILEVLDEEKRILSFRVLGGEHRLNNYRSVTSVNEFVVLEKDKKKRVYSVVLESYIVDIPQGNTEEDTRMFVDTVVKSNLQNLAVISTASPT
notes: PYL3 (pyrabactin resistance/Pyr1-like 3), Arabidopsis thaliana, subcloned from a cDNA library into pET-28a-tev; also called PYL3 WT; source: E. coli BL21(Rosseta), purified (Ni-charged resin, SEC Superdex-200)
For B5, the “stoichiometry N” value in series [7] was determined as 2.

B6: PYL3 F188A (receptor)
chain: MNLAPIHDPSSSSTTTTSSSTPYGLTKDEFSTLDSIIRTHHTFPRSPNTCTSLIAHRVDAPAHAIWRFVRDFANPNKYKHFIKSCTIRVNGNGIKEIKVGTIREVSVVSGLPASTSVEILEVLDEEKRILSFRVLGGEHRLNNYRSVTSVNEFVVLEKDKKKRVYSVVLESYIVDIPQGNTEEDTRMAVDTVVKSNLQNLAVISTASPT
As for B6, the inhibition of HAB1 (0.5 μM) phosphatase activity by 1 μM PYL3 mutant, with ABA (5 μM) in series [6] is 70%.

B7: PYL3 V108K V107L V192L (receptor)
chain: MNLAPIHDPSSSSTTTTSSSTPYGLTKDEFSTLDSIIRTHHTFPRSPNTCTSLIAHRVDAPAHAIWRFVRDFANPNKYKHFIKSCTIRVNGNGIKEIKVGTIREVSLKSGLPASTSVEILEVLDEEKRILSFRVLGGEHRLNNYRSVTSVNEFVVLEKDKKKRVYSVVLESYIVDIPQGNTEEDTRMFVDTLVKSNLQNLAVISTASPT
In series [4], B7 had an inhibition of HAB1 (0.5 μM) phosphatase activity by 1 μM PYL3 mutant, without ABA of 50%.

B8: BD-PYL3 V108K V107F V192F (receptor)
chain: MNLAPIHDPSSSSTTTTSSSTPYGLTKDEFSTLDSIIRTHHTFPRSPNTCTSLIAHRVDAPAHAIWRFVRDFANPNKYKHFIKSCTIRVNGNGIKEIKVGTIREVSFKSGLPASTSVEILEVLDEEKRILSFRVLGGEHRLNNYRSVTSVNEFVVLEKDKKKRVYSVVLESYIVDIPQGNTEEDTRMFVDTFVKSNLQNLAVISTASPT
As for B8, in series [4], the inhibition of HAB1 (0.5 μM) phosphatase activity by 1 μM PYL3 mutant, without ABA came to 90%.

B9: PYL3 V108K V107F (receptor)
chain: MNLAPIHDPSSSSTTTTSSSTPYGLTKDEFSTLDSIIRTHHTFPRSPNTCTSLIAHRVDAPAHAIWRFVRDFANPNKYKHFIKSCTIRVNGNGIKEIKVGTIREVSFKSGLPASTSVEILEVLDEEKRILSFRVLGGEHRLNNYRSVTSVNEFVVLEKDKKKRVYSVVLESYIVDIPQGNTEEDTRMFVDTVVKSNLQNLAVISTASPT
B9 registered an inhibition of HAB1 (0.5 μM) phosphatase activity by 1 μM PYL3 mutant, without ABA in series [4] of 65%. The inhibition of HAB1 phosphatase activity by the PYL3 mutant, without ABA (as retold in the discussion, Fig. 3) in series [5] stood at 40%.

B10: BD-PYL3 V108K V107F V192F L111F (receptor)
chain: MNLAPIHDPSSSSTTTTSSSTPYGLTKDEFSTLDSIIRTHHTFPRSPNTCTSLIAHRVDAPAHAIWRFVRDFANPNKYKHFIKSCTIRVNGNGIKEIKVGTIREVSFKSGFPASTSVEILEVLDEEKRILSFRVLGGEHRLNNYRSVTSVNEFVVLEKDKKKRVYSVVLESYIVDIPQGNTEEDTRMFVDTFVKSNLQNLAVISTASPT
With B10, in series [4], the inhibition of HAB1 (0.5 μM) phosphatase activity by 1 μM PYL3 mutant, without ABA stood at 98%.

B11: PYL3 V108K V107L V192L L111F (receptor)
chain: MNLAPIHDPSSSSTTTTSSSTPYGLTKDEFSTLDSIIRTHHTFPRSPNTCTSLIAHRVDAPAHAIWRFVRDFANPNKYKHFIKSCTIRVNGNGIKEIKVGTIREVSLKSGFPASTSVEILEVLDEEKRILSFRVLGGEHRLNNYRSVTSVNEFVVLEKDKKKRVYSVVLESYIVDIPQGNTEEDTRMFVDTLVKSNLQNLAVISTASPT
Molecule B11 displayed an inhibition of HAB1 (0.5 μM) phosphatase activity by 1 μM PYL3 mutant, without ABA in series [4] of 85%.

B12: BD-PYL3 V108K V107L V192F (receptor)
chain: MNLAPIHDPSSSSTTTTSSSTPYGLTKDEFSTLDSIIRTHHTFPRSPNTCTSLIAHRVDAPAHAIWRFVRDFANPNKYKHFIKSCTIRVNGNGIKEIKVGTIREVSLKSGLPASTSVEILEVLDEEKRILSFRVLGGEHRLNNYRSVTSVNEFVVLEKDKKKRVYSVVLESYIVDIPQGNTEEDTRMFVDTFVKSNLQNLAVISTASPT
In the case of B12, the inhibition of HAB1 (0.5 μM) phosphatase activity by 1 μM PYL3 mutant, without ABA in series [4] stood at 87.5%.

B13: BD-PYL3 V108K V107L V192F L111F (receptor)
chain: MNLAPIHDPSSSSTTTTSSSTPYGLTKDEFSTLDSIIRTHHTFPRSPNTCTSLIAHRVDAPAHAIWRFVRDFANPNKYKHFIKSCTIRVNGNGIKEIKVGTIREVSLKSGFPASTSVEILEVLDEEKRILSFRVLGGEHRLNNYRSVTSVNEFVVLEKDKKKRVYSVVLESYIVDIPQGNTEEDTRMFVDTFVKSNLQNLAVISTASPT
With B13, in series [4], the inhibition of HAB1 (0.5 μM) phosphatase activity by 1 μM PYL3 mutant, without ABA came out at 92.5%.
